Primed or numbered codes have the meaning given here. No end group written: not given here. Biotin′ = biotin label at the C-terminus

Drawing on patent US20210155689A1 (SHANGHAI PHARMAEXPLORER, published 2021), this text covers binding result and OD450 for nine molecules.

One assay has as its target T1, PAAPSSWGPRPRK-Biotin (human).
T1 construct: Overlapping peptide of the outer loop of human LAG-3; also called LAG-3 Extra cyclic peptide
T1 peptide: PAAPSSWGPRPRK-{Biotin′}
Kind of assay: peptide scanning ELISA, biotin peptide on streptavidin. The method, then:
(§1) Fifteen overlapping peptides including the full length of the outer loop sequence were prepared and biotin was coupled to each C-terminus. Enzyme-linked immunosorbent assay (ELISA) was used to detect the binding of antibodies to these peptides. Streptavidin (sigma, Cat #M5432) was diluted with PBS to a final concentration of 1.0 μg/ml, and then added as 100 μl per well to a 96-well ELISA plate. The plate was sealed with plastic film and incubated overnight at 4° C. The plate was washed 2 times with the plate washing solution (PBS+0.01% Tween20) on the next day, and added with the blocking solution (PBS+0.01% Tween20+1% BSA) and blocked at room temperature for 1-2 hours. The blocking solution was poured off, and biotinylated peptides was added to a final concentration of 1 ug/ml, as 100 ul per well to the 96-well ELISA plate, incubated at 37° C. for 1-2 hours, then washed with plate washing solution (PBS+0.01% Tween20)2-3 times. Then the antibody samples to be tested were incubated as 100 μl per well at 37° C. for 1-2 hours, and then the plate was washed 2-3 times with a plate washing solution (PBS+0.01% Tween20). HRP (horseradish peroxidase) labeled secondary antibody was added, and the plate was incubated at 37° C. for 1-2 hours, and washed 2-3 times with a plate washing solution (PBS+0.01% Tween20). 100 μl of TMB substrate was added to each well. After incubated at room temperature for 15-30 minutes, the plate was added with 100 μl of stop solution (1.0N HCl) to each well.
A general note: An ELISA detects its analyte on a solid surface through an enzyme-linked reagent.

For a further assay, the target named is T2, AAPSSWGPRPRRK-Biotin (human).
T2 construct: Overlapping peptide of the outer loop of human LAG-3; also called LAG-3 Extra cyclic peptide
T2 peptide: AAPSSWGPRPRRK-{Biotin′}
The description is as above. The method, then: as §1

A further assay has as its target T3, APSSWGPRPRRYK-Biotin (human).
T3 construct: Overlapping peptide of the outer loop of human LAG-3; also called LAG-3 Extra cyclic peptide
T3 peptide: APSSWGPRPRRYK-{Biotin′}
The description is as above. The method, then: as §1

The target in a further assay is T4, PSSWGPRPRRYTK-Biotin (human).
T4 construct: Overlapping peptide of the outer loop of human LAG-3; also called LAG-3 Extra cyclic peptide
T4 peptide: PSSWGPRPRRYTK-{Biotin′}
Described as above. The method, then:
as §1

For the next assay, the target named is T5, SSWGPRPRRYTVK-Biotin (human).
T5 construct: Overlapping peptide of the outer loop of human LAG-3; also called LAG-3 Extra cyclic peptide
T5 peptide: SSWGPRPRRYTVK-{Biotin′}
The description is as above. The method, then:
as §1

In another assay the target is T6, SWGPRPRRYTVLK-Biotin (human).
T6 construct: Overlapping peptide of the outer loop of human LAG-3; also called LAG-3 Extra cyclic peptide
T6 peptide: SWGPRPRRYTVLK-{Biotin′}
The assay is described as above. The method, then:
as §1

Another assay has as its target T7, WGPRPRRYTVLSK-Biotin (human).
T7 construct: Overlapping peptide of the outer loop of human LAG-3; also called LAG-3 Extra cyclic peptide
T7 peptide: WGPRPRRYTVLSK-{Biotin′}
The assay is described as above. The method, then:
as §1

Assay [1] has as its target T8, GPPAAAPGHPLAPGPHPAAPSSWGPRPRRYK-biotin (full length of the outer loop) (human, biotin coupled to the C-terminus (K-biotin)).
T8 construct: Printed over two rows (r36 and r37; again r54 and r55); also called LAG-3 Extra cyclic peptide
T8 peptide: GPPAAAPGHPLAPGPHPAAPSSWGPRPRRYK
Described as above. The method, then:
as §1

Assay [2] has as its target T9, hFc tagged monkey LAG-3 protein (cLAG-3-hFc protein) (monkey; human).
T9 construct: Made in HEK293 cells; also called monkey LAG-3 extracellular domain protein; not shown: human IgG Fc fragment (hFc) of the pCpC vector
T9 chain: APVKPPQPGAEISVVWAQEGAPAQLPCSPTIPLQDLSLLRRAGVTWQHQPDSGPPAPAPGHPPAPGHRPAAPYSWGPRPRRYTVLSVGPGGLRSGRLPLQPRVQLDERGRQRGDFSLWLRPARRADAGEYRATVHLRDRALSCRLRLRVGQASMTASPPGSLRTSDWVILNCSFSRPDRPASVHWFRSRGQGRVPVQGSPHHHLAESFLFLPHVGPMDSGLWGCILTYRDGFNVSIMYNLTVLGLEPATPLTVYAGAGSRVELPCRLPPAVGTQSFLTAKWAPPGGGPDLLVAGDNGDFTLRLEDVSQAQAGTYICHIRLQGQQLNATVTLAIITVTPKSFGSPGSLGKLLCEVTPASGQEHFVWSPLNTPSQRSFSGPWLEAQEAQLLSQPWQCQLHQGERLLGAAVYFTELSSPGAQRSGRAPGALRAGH
Kind of assay: ELISA, cLAG-3-hFc coated; 6.6667 nM. The method, then: (§2) The plate was sealed with plastic film and incubated overnight at 4° C. The plate was washed 2 times with the plate washing solution (PBS+0.01% Tween20) on the next day, and added with the blocking solution (PBS+0.01% Tween20+1% BSA) and blocked at room temperature for 1-2 hours. The blocking solution was poured out, and the plate was added with 50-100 μl of the antibody sample to be tested to each well, incubated at 37° C. for 1-2 hours, and washed 2-3 times with a plate washing solution (PBS+0.01% Tween20). HRP (horseradish peroxidase) labeled secondary antibody was added, and the plate was incubated at 37° C. for 1-2 hours, and washed 2-3 times with a plate washing solution (PBS+0.01% Tween20). 100 μl of TMB substrate was added to each well. After incubated at room temperature for 15-30 minutes, the plate was added with 100 μl of stop solution (1.0N HCl) to each well.

Assay [3] has as its target T10, mouse LAG-3 protein with hFc tag (mLAG-3-hFc protein) (mouse; human, UniProt Q61790 24-442).
T10 construct: Made in HEK293 cells; also called mouse LAG-3 extracellular domain protein; not shown: human IgG Fc fragment (hFc) of the pCpC vector
T10 sequence: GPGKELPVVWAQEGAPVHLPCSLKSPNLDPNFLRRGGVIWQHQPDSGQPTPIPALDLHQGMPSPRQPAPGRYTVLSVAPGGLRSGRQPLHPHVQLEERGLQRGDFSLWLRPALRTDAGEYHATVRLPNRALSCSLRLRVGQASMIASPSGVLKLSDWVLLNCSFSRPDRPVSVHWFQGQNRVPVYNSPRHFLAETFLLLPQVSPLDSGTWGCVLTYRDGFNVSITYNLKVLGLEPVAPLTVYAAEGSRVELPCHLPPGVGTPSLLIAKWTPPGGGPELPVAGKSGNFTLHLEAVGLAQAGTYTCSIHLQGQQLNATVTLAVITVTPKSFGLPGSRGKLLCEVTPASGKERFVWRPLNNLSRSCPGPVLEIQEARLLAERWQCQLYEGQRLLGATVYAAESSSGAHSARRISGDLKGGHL
Kind of assay: ELISA, mLAG-3-hFc coated; 0.6667 nM. The method, then: as §2

B1: 405B8H3 (mouse antibody purified from hybridoma) (antibody, V domains shown)
VH: QVQLQQSGAELVRPGASVTLSCKASGYTFTDYEMHWVKQTPVHGLEWIGATDPETGNSAYNQKFKGKAIMTADKSSSTAYMELRSLTSEDSAVYYCISTGWNDWGQGTSLTVSS
VL: DIKMTQSPSSMYASLGERVTITCKASQDINSYLSWFQQKPGKSPKTLIYRADRLLDGVPSRFSGSGSGQDYSLTISSLEYGDMGIYYCLQYDEFPYTFGGGTKLEIK
notes: also called mAb103-405B8H3; 405B81-13
In the case of B1, the binding result in the assay with PAAPSSWGPRPRK-Biotin, in the assay with AAPSSWGPRPRRK-Biotin, with APSSWGPRPRRYK-Biotin, in the assay with PSSWGPRPRRYTK-Biotin, with SSWGPRPRRYTVK-Biotin and in the assay with SWGPRPRRYTVLK-Biotin was “binds” each time. The binding result (with WGPRPRRYTVLSK-Biotin; in assay [1]) was “binds” each time.

B2: 405B8H3 (LAG-3 mouse-human chimeric antibody) (antibody, V domains shown)
VH: QVQLQQSGAELVRPGASVTLSCKASGYTFTDYEMHWVKQTPVHGLEWIGATDPETGNSAYNQKFKGKAIMTADKSSSTAYMELRSLTSEDSAVYYCISTGWNDWGQGTSLTVSS
VL: DIKMTQSPSSMYASLGERVTITCKASQDINSYLSWFQQKPGKSPKTLIYRADRLLDGVPSRFSGSGSGQDYSLTISSLEYGDMGIYYCLQYDEFPYTFGGGTKLEIK
notes: also called mouse-human chimeric antibody 405B8H3
In the case of B2, the values for the OD450 in assay [2] and in assay [3] were 3.55 OD450 and 0.11 OD450, respectively.

B3: 105F1E10 (mouse antibody purified from hybridoma) (antibody, V domains shown)
VH: EVQLQQSGPELVKPGASVKMSCRASGYTFTDFKMHWMKQSHGKSLEWIGYIAPNNGGTAYNQKFRGKATLTVNESSNTAYMELRSLTSEDSAVYYCVDWDDVDYWGQGTTLTVSS
VL: DIKMTQSPSSMYASLGERVTITCKASQDINSYLSWFQQKSGKSPKTLIYRANRLVDGVPSRFSGSGSGQDYSLTISSLEYEDMGIYYCLQYVEFPLTFGAGTKLELK
notes: also called mAb009-105F1E10
In the case of B3, the binding result with PAAPSSWGPRPRK-Biotin, with AAPSSWGPRPRRK-Biotin, with APSSWGPRPRRYK-Biotin, with PSSWGPRPRRYTK-Biotin, with SSWGPRPRRYTVK-Biotin and with SWGPRPRRYTVLK-Biotin was “binds” in each case. For the same molecule, the binding result (with WGPRPRRYTVLSK-Biotin; in [1]) was “binds” each time.

B4: 105F1E10 (LAG-3 mouse-human chimeric antibody) (antibody, V domains shown)
VH: EVQLQQSGPELVKPGASVKMSCRASGYTFTDFKMHWMKQSHGKSLEWIGYIAPNNGGTAYNQKFRGKATLTVNESSNTAYMELRSLTSEDSAVYYCVDWDDVDYWGQGTTLTVSS
VL: DIKMTQSPSSMYASLGERVTITCKASQDINSYLSWFQQKSGKSPKTLIYRANRLVDGVPSRFSGSGSGQDYSLTISSLEYEDMGIYYCLQYVEFPLTFGAGTKLELK
Regarding B4, the OD450 in [2] was determined as 3.53 OD450; in assay [3] it was 0.09 OD450.

B5: 409B11E12 (LAG-3 mouse-human chimeric antibody) (antibody, V domains shown)
VH: QVQLQQSGAELVRPGASVTLSCKASGYTFTDYEMHWVKQTTVHGLEWIGATDPETSYSAYNQKFKGKAILTADKSSSTAYMELRSLTSEDSAVYYCIATGWNDWGQGTSLTVSS
VL: DLKMTQSPSSMYASLGERVTITCKASQDINSYLSWFQQKPGKSPKTLIYRANRLLDGVPSRFSGSGSGQDYSLTISSLEYEDMGIYYCLQYDEFPYTFGGGTKLEIK
As for B5, the OD450 in assay [2] was 3.47 OD450; in [3], 0.1 OD450.

B6: 409D4E10 (mouse antibody purified from hybridoma) (antibody, V domains shown)
VH: QVQLQQSGAELVRPGASVTLSCKASGNTFTDYEMHWVKQTPVHGLEWIGATDPETDNTAYNQKFKGKAILTTDKSSSTAYMELRSLTSEDSAVYYCITSGWNDWGQGTSLTVSS
VL: DIKMTQSPSSMYASLGERVTITCKASQDINSYLSWFQQKPGKSPKTLIYRANRLLDGVPSRFSGSGSGQDYSLTISSLEYEDMGIYYCLQYNEFPYTFGGGTKLEIK
notes: also called mAb112-409D4E10
Take B6: the binding result with PAAPSSWGPRPRK-Biotin, with AAPSSWGPRPRRK-Biotin, with APSSWGPRPRRYK-Biotin, in the assay with PSSWGPRPRRYTK-Biotin, with SSWGPRPRRYTVK-Biotin and in the assay with SWGPRPRRYTVLK-Biotin was “binds” each time. Besides, the binding result (with WGPRPRRYTVLSK-Biotin; in assay [1]) was “binds” throughout.

B7: 409D4E10 (LAG-3 mouse-human chimeric antibody) (antibody, V domains shown)
VH: QVQLQQSGAELVRPGASVTLSCKASGNTFTDYEMHWVKQTPVHGLEWIGATDPETDNTAYNQKFKGKAILTTDKSSSTAYMELRSLTSEDSAVYYCITSGWNDWGQGTSLTVSS
VL: DIKMTQSPSSMYASLGERVTITCKASQDINSYLSWFQQKPGKSPKTLIYRANRLLDGVPSRFSGSGSGQDYSLTISSLEYEDMGIYYCLQYNEFPYTFGGGTKLEIK
B7: the OD450 in [2] worked out at 3.79 OD450; in [3] it was 0.11 OD450.

B8: 409B11E12 (mouse antibody purified from hybridoma) (antibody, V domains shown)
VH: QVQLQQSGAELVRPGASVTLSCKASGYTFTDYEMHWVKQTTVHGLEWIGATDPETSYSAYNQKFKGKAILTADKSSSTAYMELRSLTSEDSAVYYCIATGWNDWGQGTSLTVSS
VL: DLKMTQSPSSMYASLGERVTITCKASQDINSYLSWFQQKPGKSPKTLIYRANRLLDGVPSRFSGSGSGQDYSLTISSLEYEDMGIYYCLQYDEFPYTFGGGTKLEIK
notes: also called mAb104-409B11E12
For B8, the binding result with PAAPSSWGPRPRK-Biotin, with AAPSSWGPRPRRK-Biotin, with APSSWGPRPRRYK-Biotin, with PSSWGPRPRRYTK-Biotin, with SSWGPRPRRYTVK-Biotin and with SWGPRPRRYTVLK-Biotin was “binds” in each case. Further, the binding result (with WGPRPRRYTVLSK-Biotin; in assay [1]) was “binds” in each case.

B9: 556F6B8 (LAG-3 mouse-human chimeric antibody) (antibody, V domains shown)
VH: RVQLKQSGPGLVQPSQSLSITCTVSGFSLIKYGVHWVRQSPGEGLEWLGVIWRGGITDYNAAFMSRLSITKDNSKSQVFFKMNSLQADDTAIYYCAKWDGPLAMDYWGQGTSVTVSS
VL: DIVMTQSHKFLSTSVGDRVSITCKASQDVGTTVAWYQQKPGQSPKLLIYWASTRHTGVPDRFTGSGSGTDFTLTISNVQSEDLADYFCQQYSSYPYTFGGGTKLEIK
notes: also called 556F8B8
Regarding B9, the OD450 in assay [2] worked out at 3.78 OD450; in [3] it was 0.15 OD450.
